We go through three molecules from US11584938B2, “Plant EPSPS mutant containing L195P and S247G mutations and encoding gene and use thereof” (GEVOTO LLC, priority 2017, dated 2023).

Residue numbers refer to the chain shown, from its start.

In the test the test system is transgenic rice plants. Description: glyphosate resistance of the EPSPS mutant in transgenic rice plants sprayed with Roundup 41% ammonium glyphosate. Type of test: in vivo, rice (Nipponbare). The text has this: A method for detecting the glyphosate resistance of G1 (SEQ ID NO: 4) provided in Example 1, G3 (SEQ ID NO: 8) provided in Example 2, G4 (SEQ ID NO: 10) provided in Example 3, the soybean EPSPS mutant G5 (SEQ ID NO: 12) provided in Example 4, T1 (SEQ ID NO: 16) provided in Example 5, T3 (SEQ ID NO: 20) provided in Example 6, T4 (SEQ ID NO: 22) provided in Example 7, T5 (SEQ ID NO: 24) provided in Example 8, the wheat EPSPS mutant T6 (SEQ ID NO: 26) provided in Example 9, R1 (SEQ ID NO: 30) provided in Example 10, R3 (SEQ ID NO: 34) provided in Example 11, R4 (SEQ ID NO: 36) provided in Example 12, R5 (SEQ ID NO: 38) provided in Example 13, and the rice EPSPS mutant R6 (SEQ ID NO: 40) provided in Example 14 in the transgenic rice is as follows:
The plasmids (containing the EPSPS mutation gene) of the monoclonal resistant bacteria of pADV5-EPSPS in Examples 1-7 were extracted by a conventional method, followed by double enzyme digestion by Pac1 and BstEII, the small fragments were collected, and then the small fragments were ligated by using T4 DNA ligase, to the pGVP1 vectors that had undergone the same double enzyme digestion, to obtain a pGVP1-EPSPS vector having a structure as shown in FIG. 23.
EHA105 (Agrobacterium tumefaciens) competent cells were transformed by the pGVP1-EPSPS vector, and single colonies were picked up to perform bacterial colony PCR detection to identify positive strains; then the positive strains were inoculated into 1 mL of YEP culture medium containing 50 μg·mL^−1 kanamycin and 50 μg·mL^−1 rifampin to propagate, and then preserved at −80° C., or used for subsequent experiment.
400 μl of bacterium containing the target gene vector preserved at −80° C. was added to a culture dish of solid culture media containing YEP+50 μg/mL rifampin+50 μg/mL kanamycin, and cultured in the dark at 28° C. for 24 hours, then this bacterium was added to an infection culture medium, and this bacterial solution was adjusted to OD=0.2 as an infection liquid.
Sterilization and pre-culturing: mature rice (Nipponbare) seeds were manually shelled, and full seeds without bacterial plaque were selected, and sterilized according to following steps: putting the seeds into a 50 ml sterile centrifuge tube, adding 70% alcohol for disinfection for 30 seconds, pouring out the alcohol, and cleaning the seeds once with sterile water; adding 10-20 ml of 2.6% sodium hypochlorite solution for soaking and sterilizing for 20 minutes, pouring out the sodium hypochlorite solution, and soaking and cleaning the seeds with sterile water for 6-7 times, 3 minutes each time.
Induction and subculturing: the seeds were put on sterile filter paper for drying, and mature embryos were put in an induction culture medium with 12 embryos in each dish; the culture dishes were sealed with a sealing film after the operation was finished, the mature embryos were cultured in the dark at 30° C. for 21-28 days, calluses were transferred into a fresh culture medium, and continuously cultured for about 7-14 days, and spherical calluses with a size of 1-2 mm were taken as infection receptors.
the calluses were inoculated into a centrifuge tube or a culture cup, the prepared Agrobacterium tumefaciens suspension liquid was added for infection for 10 minutes, wherein the calluses were shaken several times; the bacterial solution was poured out, the calluses were taken out, and placed on sterile filter paper to suck out the surface bacterial solution (about 30 minutes); and the calluses were put on sterile filter paper in a culture dish, and cultured in the dark at 25° C. for 2-3 days.
Recovery culturing: the calluses having undergone co-culturing were inoculated in a recovery culture medium, and cultured in the dark at 30° C. for 5-7 days. First round of screening: the calluses were transferred to screening culture media 1 (S1) and cultured in the dark at 30° C. for 14 days. […]

Where [1] appears, read: 1× dosage 1060 g/hectare glyphosate sprayed, recorded on 10th day.
Setting [2] is: 2× dosage 2120 g/hectare sprayed to plants surviving 1×, recorded 10 days later.
Where [3] appears, read: 5× dosage 5300 g/hectare sprayed to plants surviving 2×, recorded 10 days later.
Where [4] appears, read: 20× dosage 21200 g/hectare sprayed to plants surviving 5×, recorded 10 days later.

B1: G3: soybean EPSPS mutant, SEQ ID NO: 8, mutations L212(195)P and P114(101)S (protein)
chain: MAAAEKPSTAPEIVLEPIKDISGTITLPGSKSLSNRILLLAALSEGTTVVDNLLYSEDIHYMLGALRTLGLRVEDDQTTKQAIVEGCGGLFPTIKESKDEINLFLGNAGTAMRSLTAAVVAAGGNASYVLDGVPRMRERPIGDLVAGLKQLGADVDCFLGTNCPPVRVNGKGGLPGGKVKLSGSVSSQYLTALLMAAPLALGDVEIEIVDKPISVPYVEMTLKLMERFGVSVEHSGDWDKFLVHGGQKYKSPGNAFVEGDASSASYFLAGAAVTGGTITVNGCGTSSLQGDVKFAEVLEKMGAKVTWSENSVTVTGPPQDSSGQKVLQGIDVNMNKMPDVAMTLAVVALFANGQTTIRDVASWRVKETERMIAICTELRKLGATVEEGPDYCVITPPEKLNVTAIDTYDDHRMAMAFSLAACGDVPVTIKDPGCTRKTFPDYFEVLERFTRH
As for B1, the “%++&+++ (percentage of plant having medium and high glyphosate resistance to the total number of plants observed)” value was determined as 57.9% under setting [1] and 0.0% under setting [2]. The “number of plants denoted by + (low glyphosate resistance)” value (“number … (low glyphosate resistance)” for short) runs as follows: under setting [1], 25; under setting [2], 66; under setting [3], 46; under setting [4], 8. The “number of plants denoted by ++ (medium glyphosate resistance)” value (“number … (medium glyphosate resistance)” for short) was determined as 37 under setting [1], 0 under setting [2], 0 under setting [3] and 0 under setting [4]. Moreover, the “number of plants denoted by +++ (high glyphosate resistance)” value (shortened to “number of plants denoted by +++”) is, setting by setting: under setting [1], 7; under setting [2], 0; under setting [3], 0; under setting [4], 0. Further, the “number of plants denoted by − (no glyphosate resistance)” value (shortened to “number … (no glyphosate resistance)”) reads like this: under setting [1], 7; under setting [2], 10; under setting [3], 30; under setting [4], 68. For the same molecule, the “glyphosate resistance / survival of the rice transformed by the EPSPS, in words” value (“glyphosate resistance / survival” for short) (1× glyphosate dosage) was “had certain resistance to glyphosate”; the “glyphosate resistance / survival” value (2× glyphosate dosage) is “some of the rice seedlings containing the soybean EPSPS mutants G3 and G5 still survived”; the “glyphosate resistance / survival” value (5× glyphosate dosage) was “some of the rice seedlings containing the soybean EPSPS mutants G3 and G5 still survived”; the “glyphosate resistance / survival” value (20× glyphosate dosage) is “some of the rice seedlings containing the soybean EPSPS mutants G3 and G5 still survived”. In addition, the “&++&+++ (percentage of plant having medium and high glyphosate resistance to the total number of plants observed)” value under setting [3] came out at 0.0%; the “&++&+++ (percentage of plant having medium and high glyphosate resistance to the total number of plants observed)” value under setting [4] amounted to 0.0%.

B2: G4: soybean EPSPS mutant, SEQ ID NO: 10, mutation S265(247)G (protein)
chain: B1 chain with S114P, P212L, S265G
As to B2, under setting [1], the “%++&+++ (percentage of plant having medium and high glyphosate resistance to the total number of plants observed)” value is listed as 26.5%; the “number … (low glyphosate resistance)” value came to 23; the “number … (medium glyphosate resistance)” value is given as 9; the “number of plants denoted by +++” value came out at 4. Besides, the “number … (no glyphosate resistance)” value under setting [1] worked out at 13. In addition, the “glyphosate resistance / survival” value (1× glyphosate dosage) was “obviously superior to that of the rice seedlings transformed by G0”. Further, under setting [2], the “%++&+++ (percentage of plant having medium and high glyphosate resistance to the total number of plants observed)” value was found to be 2.0%; the “number … (low glyphosate resistance)” value was 25; the “number … (medium glyphosate resistance)” value came to 01; the “number of plants denoted by +++” value was 0. The “number … (no glyphosate resistance)” value under setting [2] was found to be 25. In addition, the “glyphosate resistance / survival” value (2× glyphosate dosage) is “some of the transgenic rice seedlings transformed by G4 still survived”. Moreover, under setting [3], the “&++&+++ (percentage of plant having medium and high glyphosate resistance to the total number of plants observed)” value stood at 0.0%; the “number … (low glyphosate resistance)” value worked out at 7; the “number … (medium glyphosate resistance)” value is listed as 0; the “number of plants denoted by +++” value came out at 0. Besides, the “number … (no glyphosate resistance)” value under setting [3] amounted to 44. The “glyphosate resistance / survival” value (5× glyphosate dosage) was “some of the transgenic rice seedlings transformed by G4 still survived”. For the same molecule, under setting [4], the “&++&+++ (percentage of plant having medium and high glyphosate resistance to the total number of plants observed)” value is 0.0%; the “number … (low glyphosate resistance)” value is listed as 0; the “number … (medium glyphosate resistance)” value amounted to 0; the “number of plants denoted by +++” value is reported as 0. The “number … (no glyphosate resistance)” value under setting [4] was found to be 51.

B3: G5: soybean EPSPS mutant, SEQ ID NO: 12, mutations S265(247)G and P114(101)S (protein)
chain: B1 chain with P212L, S265G
As to B3, the “%++&+++ (percentage of plant having medium and high glyphosate resistance to the total number of plants observed)” value by setting is: under setting [1], 69.1%; under setting [2], 34.0%. In addition, the “number … (low glyphosate resistance)” value by setting is: under setting [1], 14; under setting [2], 43; under setting [3], 53; under setting [4], 24. Further, the “number … (medium glyphosate resistance)” value is, setting by setting: under setting [1], 18; under setting [2], 23; under setting [3], 6; under setting [4], 0. The “number of plants denoted by +++” value under setting [1] is 49, the “number of plants denoted by +++” value under setting [2] is 10, the “number of plants denoted by +++” value under setting [3] is 1 and the “number of plants denoted by +++” value under setting [4] is on record as 0. In addition, the “number … (no glyphosate resistance)” value by setting is: under setting [1], 16; under setting [2], 21; under setting [3], 37; under setting [4], 73. The “glyphosate resistance / survival” value is, setting by setting: (1× glyphosate dosage) “had certain resistance to glyphosate”; (2× glyphosate dosage) “some of the rice seedlings containing the soybean EPSPS mutants G3 and G5 still survived”; (5× glyphosate dosage) “some of the rice seedlings containing the soybean EPSPS mutants G3 and G5 still survived”; (20× glyphosate dosage) “some of the rice seedlings containing the soybean EPSPS mutants G3 and G5 still survived”. For the same molecule, the “&++&+++ (percentage of plant having medium and high glyphosate resistance to the total number of plants observed)” value runs as follows: under setting [3], 7.2%; under setting [4], 0.0%.
